In US9056102B2, “VEGF-activated trail ligands” (The Regents of the University of California, priority 2005, dated 2015):

B1: R2FasL: FLAG epitope-tagged VEGFR2/FasL fusion protein expressed from pFLAG/R2FasL; apparently the FLAG-tagged form of FlkFasL (protein)
chain: AASVGLPGDFLHPPKLSTQKDILTILANTTLQITCRGQRDLDWLWPNAQRDSEERVLVTECGGGDSIFCKTLTIPRVVGNDTGAYKCSYRDVDIASTVYVYVRDYRSPFIASVSDQHGIVYITENKNKTVVIPCRGSISNLNVSLCARYPEKRFVPDGNRISWDSEIGFTLPSYMISYAGMVFCEAKINDETYQSIMYIVVVVGYRIYDVILSPPHEIELSAGEKLVLNCTARTELNVGLDFTWHSPPSKSHHKKIVNRDVKPFPGTVAKMFLSTLTIESVTKSDQGEYTCVASSGRMIKRNRTFVRVHTKPFIAFGSARGTSEKKELRKVAHLTGKSNSRSMPLEWEDTYGIVLLSGVKYKKGGLVINETGLYFVYSKVYFRGQSCNNLPLSHKVYMRNSKYPQDLVMMEGKMMSYCTTGQMWARSSYLGAVFNLTSADHLYVNVSELSLVNFEESQTFFGLYKL
modifications: left off: small tags and cut ends
notes: apparently the FLAG-tagged form of FlkFasL

Experiments:
[1] = test system: U87MG human glioblastoma cells; assay: Potentiation of R2FasL by chemotherapeutic agents, LDH release assay; conditions: 72 hours drug (Bis VIII 1 μM, camptothecin 20 nM, etoposide 5 μM), then R2FasL 10 μL/well for 40 hours
Experimental: To determine if the activity of R2FasL can be potentiated by chemotherapeutic agents, the following experiments were performed. U87MG human glioblastoma cells were plated in 96-well plates in 100 μL of complete medium with 10% fetal calf serum at 25,000 cells/well. Forty-eight hours later cells were treated with either bisindolylmaleimide VIII (Bis VIII, final concentration 1 μM), camptothecin (final concentration 20 nM), etoposide (final concentration 5 μM), or DMSO vehicle (1 μL/well). Bis VIII, camptothecin, and etoposide (all from Biomol) were dissolved in DMSO and added at 1 μL/well. After 72 hours of drug exposure, cells were treated with FLAG antibody affinity-purified R2FasL solution (10 μL/well), and incubated for an additional 40 hours. Cell viability and cytotoxicity were assayed using the resazurin assay and the LDG release assay, respectively, as described above.

[2] = test system: U87MG human glioblastoma cells; assay: Potentiation of R2FasL by chemotherapeutic agents, resazurin cell viability assay; assay type: cell-based; conditions: 72 hours drug (Bis VIII 1 μM, camptothecin 20 nM, etoposide 5 μM), then R2FasL 10 μL/well for 40 hours
[3] = test system: U87MG human glioblastoma cells; assay: Cell death in glioblastoma cells, Trypan blue cell counting; assay type: cell-based; conditions: Cos7 conditioned medium with R2FasL, 36 hours
Experimental: To investigate if R2FasL induces apoptosis in human glioblastoma the following experiment was performed. […] Twenty-four hours later conditioned medium from Cos7 cells transfected with either pFLAG/R2FasL or empty pFLAG vector was added (FIG. 17B). The concentration of R2FasL was determined separately by quantitative immunoblotting using commercially produced rhsFasL as standard (R&S Systems). After 36 more hours, cells were trypsinized, stained with Trypan blue, and counted on a hemocytometer. Data in FIG. 17B are shown as mean±SEM.

[4] = test system: DU145 human prostate cancer cells; assay: LDH release cytotoxicity assay in prostate cancer cells; assay type: cell-based; conditions: Cos7 conditioned medium with R2FasL, 34 hours
Experimental: DU145 human prostate cancer cells were plated in 24-well plates in 500 μL of complete medium with 10% fetal calf serum and allowed to grow for 54 hours without change of medium. Conditioned medium from Cos7 cells transfected with either pFLAG/R2FasL or empty pFLAG vector was added in the indicated volumes. After 34 more hours cytotoxicity was assayed using the LDH release assay as described above.

[5] = test system: Human umbilical vein endothelial cells (HUVEC); assay: Macrovascular endothelial cell viability, resazurin assay; assay type: cell-based; conditions: serum-starved, 10 μL/well conditioned medium, with 2 nM rhVEGF-165, 22 hours
Experimental: R2FasL may be differentially active in tumor endothelial cells (microvascular) and less toxic to normal macrovascular endotherlial cells, such as arteries and veins. […] Twenty-four hours later serum starvation was begun (to sensitize cells to death signals) by withdrawing serum. After fifteen hours of serum starvation cells were treated Cos7 cell conditioned medium containing R2FasL (10 μL/well) in the absence or presence of rh VEGF-165 (final concentration 2 nM). After 22 hours of treatment with R2FasL±rhVEGF cell viability was assayed using the resazurin assay as described herein. No effect of R2FasL+VEGF was seen on these macrovascular endothelial cells (FIG. 20A).

[6] = test system: Jurkat E6.1 human T cells; assay: Jurkat cell viability, resazurin (AlamarBlue) assay; assay type: cell-based; conditions: 1 μL/well conditioned medium, rhVEGF-165 or rmVEGF-165 0.001-10 nM, 18 hours
Experimental: Conditioned medium (0.001, 0.01, 0.1, 1, or 10 μL) from Cos7 cells transfected with pFLAG/R1[D2]FasL vector was added in the absence or presence of rhVEGF-165 (final concentration 2 nM). Twenty-two hours later cell viability was assayed using the resazurin assay (AlamarBlue reagent from BioSource). Conversion of AlamarBlue substrate to product by viable cells was determined by adding 20 μL of AlamarBlue to each well and measuring absorbance at 540 nm and […]. Calculation of % conversion of substrate to product was performed according to the manufacturer's protocol.
To investigate which growth factors activate R1[D2]FasL the following experiment was performed. […] All growth factors were used at a final concentration of 10 nM, and were from Peprotech or R&D Systems. Nineteen hours later cell viability was assayed using the resazurin assay as described above.
In a similar experiment, the concentration of the growth factors tested was varied. […] Conditioned medium from Cos7 cells transfected with either pFLAG/R2FasL vector or empty pFLAG vector was added (1 μL/well), in the absence or presence of rhVEGF-165 or rmVEGF-165 at the final concentrations of 0.001, 0.01, 0.1, 1, and 10 nM. Eighteen hours later cell viability was assayed using the resazurin assay as described herein.
To determine the ED50 for hVEGF-165 on R1[D2]FasL the following experiment was performed. […] Conditioned medium from Cos7 cells transfected with pFLAG/R1[D2]FasL vector was added (2 μL/well), in the absence or presence of rhVEGF-165 at 0, 0.01, 0.1, 1, 10, 100, 1,000, or 10,000 nM. Nineteen hours later cell viability was assayed using the resazurin assay as described above.
In a similar experiment the ED50 for hVEGF-165 on R2FasL was determined. […] Conditioned medium from Cos7 cells transfected with pFLAG/R2FasL vector was added in the volumes indicated, in the absence or presence of rhVEGF-165 at the final concentrations of […], 0.2 and 2 nM. Eighteen hours later cell viability was assayed using the resazurin assay. The ED50 for rhVEGF-165 was between 20 pM and 200 pM (FIG. 21B).

[7] = test system: U373 human glioblastoma cells; assay: LDH release cytotoxicity assay in Fas-resistant glioblastoma cells; assay type: cell-based; conditions: Cos7 conditioned medium with R2FasL, 36 hours; cells resistant to Fas receptor-mediated killing
Experimental: To investigate the specificity of the R2FasL activity on U87MG glioblastoma cells, the cytotoxic effect of R2FasL on the U373 glioblastoma cell line, was analyzed. […] Conditioned medium from Cos7 cells transfected with pFLAG/R2FasL vector was added in the indicated volumes. After 36 more hours cytotoxicity was assayed using the LDH release assay as described herein (FIG. 17D).

[8] = test system: Bovine adrenal cortical endothelial cells; assay: Microvascular endothelial cell cytotoxicity, LDH release assay; assay type: cell-based; conditions: 2 μL/well conditioned medium, with 2 nM rhVEGF-165, 24 hours
Experimental: Twenty-two hours later conditioned medium from Cos7 cells transfected with either pFLAG/R2FasL or empty pFLAG vector was added (2 μL/well), in the absence or presence of rhVEGF-165 (final concentration 2 nM). Twenty-four hours later cytotoxicity was assayed using the LDH release assay as described above.

[9] = test system: U87MG human glioblastoma cells; assay: LDH release cytotoxicity assay in glioblastoma cells; assay type: cell-based; conditions: FLAG-purified R2FasL solution 0-10 μL/well, 24 hours
Experimental: R2FasL solution (0, 0.01, 0.1, 1, or 10 μL), purified by FLAG epitope tag affinity chromatography, was then added to each well (FIG. 17A). In addition, each well received 300 ng of neutralizing anti-VEGF antibody, neutralizing anti-FasL antibody, or control goat Ig (all from R&S Systems). Twenty-four hours later the cells were assayed for cytotoxicity using the LDH release assay (Roche), in which 10 μL of cell supernatant is mixed with 100 μL LDH reaction mixture in a total reaction volume of 200 μL. Cytotoxicity was assayed spectrophotometrically by measuring absorbance at 492 nm.

| Molecule | potentiation of R2FasL cytotoxic activity (LDH release) [1] | potentiation of R2FasL apoptotic activity (cell viability) [2] | cell death (cell count) [3] | cytotoxicity (LDH release) [4] | effect of R2FasL+VEGF on cell viability [5] | activation by human and mouse VEGF-165 (cell viability) [6] | cytotoxicity (LDH release) [7] | cytotoxicity (LDH release) of R2FasL and VEGF [8] | cytotoxicity (LDH release) [9] |
| --- | --- | --- | --- | --- | --- | --- | --- | --- | --- |
| CC[C@@]1(O)C(=O)OCc2c1cc1n(c2=O)Cc2cc3ccccc3nc2-1 [camptothecin] | Potentiation of R2FasL cytotoxic activity | Potentiation of R2FasL apoptotic activity | – | – | – | – | – | – | – |
| B1 | – | – | induces cell death | induces cytotoxicity | No effect | human and mouse VEGF-165 similarly activate R2FasL | does not induce cytotoxicity | induce cytotoxicity | induces cytotoxicity |
